Patent publication US20250003951A1 (OXFORD UNIVERSITY INNOVATION, published 2025)

Key:
Assay in all cases: cell-based or functional assay
OX1149-290 = target: T1, OX1149-290 (human)
T1 peptide: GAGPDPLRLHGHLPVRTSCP

OX289-052 = target: T2, OX289-052 (human)
T2 peptide: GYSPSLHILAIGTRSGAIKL

OX289-075 = target: T3, OX289-075 (human)
T3 peptide: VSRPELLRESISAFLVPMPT

OX289-205 = target: T4, OX289-205 (human)
T4 peptide: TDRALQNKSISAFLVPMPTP

OX993-413 = target: T5, OX993-413 (human)
T5 peptide: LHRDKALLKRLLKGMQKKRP

OX993-414 = target: T6, OX993-414 (human)
T6 peptide: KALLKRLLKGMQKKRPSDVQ

OX802-321 = target: T7, OX802-321 (human)
T7 peptide: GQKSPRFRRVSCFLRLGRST

OX802-322 = target: T8, OX802-322 (human)
T8 peptide: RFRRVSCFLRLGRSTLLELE

OX289-221 = target: T9, OX289-221 (human)
T9 peptide: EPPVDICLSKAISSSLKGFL

OX628-308 = target: T10, OX628-308 (human)
T10 peptide: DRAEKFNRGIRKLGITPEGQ

OX628-309 = target: T11, OX628-309 (human)
T11 peptide: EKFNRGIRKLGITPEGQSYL

B1: OX1149 Peptide 290 clone 1 TCR (TCR, V domains shown)
V domain 1: GENVEQHPSTLSVQEGDSAVIKCTYSDSASNYFPWYKQELGKRPQLIIDIRSNVGEKKDQRIAVTLNKTAKHFSLHITETQPEDSAVYFCAASIATDKLIFGTGTRLQVFP
V domain 2: KAGVTQTPRYLIKTRGQQVTLSCSPISGHRSVSWYQQTPGQGLQFLFEYFSETQRNKGNFPGRFSGRQFSNSRSEMNVSTLELGDSALYLCASSWRGQGEGYTFGSGTRLTVVE
Clone size (percent repertoire), IFNγ+ sorted T cells after peptide stimulation (OX1149-290): 20.4 % of repertoire

B2: OX289 Peptide 52 clone 1 TCR (TCR)
TCR alpha: AQSVTQPDIHITVSEGASLELRCNYSYGATPYLFWYVQSPGQGLQLLLKYFSGDTLVQGIKGFEAEFKRSQSSFNLRKPSVHWSDAAEYFCAVGAYSSASKIIFGSGTRLSIRPNIQNPDPAVYQLRD
TCR beta 1: EPEVTQTPSHQVTQMGQEVILRCVPISNHLYFYWYRQILGQKVEFLVSFYNNEISEKSEIFDDQFSVERPDGSNFTLKIRSTKLEDSAMYFCASRDRGSGANVLTFGAGSRLTVLEDLKNVFPPEVAVFEPS
TCR beta 2: AVVSQHPSWVICKSGTSVKIECRSLDFQATTMFWYRQFPKQSLMLMATSNEGSKATYEQGVEKDKFLINHASLTLSTLTVTSAHPEDSSFYICSGGWGPNTGELFFGEGSRLTVLEDLKNVFPPEVAVFEPS
Clone size (percent repertoire), IFNγ+ sorted T cells after peptide stimulation (OX289-052): 27.3 % of repertoire

B3: OX289 Peptides 75/205 clone 3 TCR (TCR, V domains shown)
V domain 1: NSVTQMEGPVTLSEEAFLTINCTYTATGYPSLFWYVQYPGEGLQLLLKATKADDKGSNKGFEATYRKETTSFHLEKGSVQVSDSAVYFCALRGRNQGGKLIFGQGTELSVKP
V domain 2: GAVVSQHPSRVICKSGTSVKIECRSLDFQATTMFWYRQFPKQSLMLMATSNEGSKATYEQGVEKDKFLINHASLTLSTLTVTSAHPEDSSFYICSARLSSGGGYEQFFGPGTRLTVLE
Clone size (percent repertoire), IFNγ+ sorted T cells after peptide stimulation (OX289-075): 13.9 % of repertoire | Clone size (percent repertoire), IFNγ+ sorted T cells after peptide stimulation (OX289-205): 13.9 % of repertoire

B4: OX1149 Peptide 290 clone 2 TCR (TCR, V domains shown)
V domain 1: RGNGKNQVEQSPQSLIILEGKNCTLQCNYTVSPFSNLRWYKQDTGRGPVSLTIMTFSENTKSNGRYTATLDADTKQSSLHITASQLSDSASYICVVTGGANNLFFGTGTRLTVIP
V domain 2: KAGVTQTPRYLIKTRGQQVTLSCSPISGHRSVSWYQQTPGQGLQFLFEYFSETQRNKGNFPGRFSGRQFSNSRSEMNVSTLELGDSALYLCASSEAGEWTQYFGPGTRLTVLE
Clone size (percent repertoire), IFNγ+ sorted T cells after peptide stimulation (OX1149-290): 7 % of repertoire

B5: OX993 Peptides 413/414 clone 1 TCR (TCR)
TCR alpha 1: GESVGLHLPTLSVQEGDNSIINCAYSNSASDYFIWYKQESGKGPQFIIDIRSNMDKRQGQRVTVLLNKTVKHLSLQIAATQPGDSAVYFCAEIGSGAGSYQLTFGKGTKLSVIPNIQNPDPAVYQLRD
TCR alpha 2: GESVGLHLPTLSVQEGDNSIINCAYSNSASDYFIWYKQESGKGPQFIIDIRSNMDKRQGQRVTVLLNKTVKHLSLQIAATQPGDSAVYFCAENQGGSSYKLIFGSGTRLLVRPDIQNPDPAVYQLRD
TCR beta: DTGVSQNPRHKITKRGQNVTFRCDPISEHNRLYWYRQTLGQGPEFLTYFQNEAQLEKSRLLSDRFSAERPKGSFSTLEIQRTEQGDSAMYLCASSSQSGVDTEAFFGQGTRLTVVEDLNKVFPPEVAVFEPS
Clone size (percent repertoire), IFNγ+ sorted T cells after peptide stimulation (OX993-413): 26.7 % of repertoire | Clone size (percent repertoire), IFNγ+ sorted T cells after peptide stimulation (OX993-414): 26.7 % of repertoire

B6: OX289 Peptides 75/205 clone 1 TCR (TCR)
TCR alpha 1: NSVTQMEGPVTLSEEAFLTINCTYTATGYPSLFWYVQYPGEGLQLLLKATKADDKGSNKGFEATYRKETTSFHLEKGSVQVSDSAVYFCALRHKAAGNKLTFGGGTRVLVKPNIQNPDPAVYQLRD
TCR alpha 2: QQKEKSDQQQVKQSPQSLIVQKGGISIINCAYENTAFDYFPWYQQFPGKGPALLIAIRPDVSEKKEGRFTISFNKSAKQFSLHIMDSQPGDSATYFCAALFDGGSQGNLIFGKGTKLSVKPNIQNPDPAVYQLRD
TCR beta: AVVSQHPSWVICKSGTSVKIECRSLDFQATTMFWYRQFPKQSLMLMATSNEGSKATYEQGVEKDKFLINHASLTLSTLTVTSAHPEDSSFYICSASGPEKLFFGSGTQLSVLEDLNKVFPPEVAVFEPS
Clone size (percent repertoire), IFNγ+ sorted T cells after peptide stimulation (OX289-075): 42.4 % of repertoire | Clone size (percent repertoire), IFNγ+ sorted T cells after peptide stimulation (OX289-205): 42.4 % of repertoire

B7: OX802 Peptides 321/322 clone 1 TCR (TCR)
TCR alpha 1: AGQSLEQPSEVTAVEGAIVQINCTYQTSGFYGLSWYQQHDGGAPTFLSYNALDGLEETGRFSSFLSRSDSYGYLLLQELQMKDSASYFCAVLKKGYALNFGKGTSLLVTPHIQNPDPAVYQLRD
TCR alpha 2: KDQVFQPSTVASSEGAVVEIFCNHSVSNAYNFFWYLHFPGCAPRLLVKGSKPSQQGRYNMTYERFSSSLLILQVREADAAVYYCAVAGGYNKLIFGAGTRLAVHPYIQNPDPAVYQLRD
TCR beta: EAGVVQSPRYKIIEKKQPVAFWCNPISGHNTLYWYLQNLGQGPELLIRYENEEAVDDSQLPKDRFSAERLKGVDSTLKIQPAELGDSAVYLCASSLEAGDSYEQYFGPGTRLTVTEDLKNVFPPEVAVFEPS
Clone size (percent repertoire), IFNγ+ sorted T cells after peptide stimulation (OX802-321): 47.4 % of repertoire | Clone size (percent repertoire), IFNγ+ sorted T cells after peptide stimulation (OX802-322): 47.4 % of repertoire

B8: OX289 Peptide 221 clone 2 TCR (TCR, V domains shown)
V domain 1: GDAKTTQPNSMESNEEEPVHLPCNHSTISGTDYIHWYRQLPSQGPEYVIHGLTSNVNNRMASLAIAEDRKSSTLILHRATLRDAAVYYCILRDVGGSEKLVFGKGTKLTVNP
V domain 2: AVVSQHPSWVICKSGTSVKIECRSLDFQATTMFWYRQFPKQSLMLMATSNEGSKATYEQGVEKDKFLINHASLTLSTLTVTSAHPEDSSFYICSAKGLENQPQHFGDGTRLSILE
Clone size (percent repertoire), IFNγ+ sorted T cells after peptide stimulation (OX289-221): 10.9 % of repertoire

B9: OX1149 Peptide 290 clone 3 TCR (TCR)
TCR alpha 1: GDAKTTQPNSMESNEEEPVHLPCNHSTISGTDYIHWYRQLPSQGPEYVIHGLTSNVNNRMASLAIAEDRKSSTLILHRATLRDAAVYYCILVEGNEKLTFGTGTRLTIIPNIQNPDPAVYQLRD
TCR alpha 2: SQELEQSPQSLIVQEGKNLTINCTSSKTLYGLYWYKQKYGEGLIFLMMLQKGGEEKSHEKITAKLDEKKQQSSLHITASQPSHAGIYLCGADVQGSQGNLIFGKGTKLSVKPNIQNPDPAVYQLRD
TCR beta: EPEVTQTPSHQVTQMGQEVILRCVPISNHLYFYWYRQILGQKVEFLVSFYNNEISEKSEIFDDQFSVERPDGSNFTLKIRSTKLEDSAMYFCASRLGGRTTEAFFGQGTRLTVVEDLNKVFPPEVAVFEPS
Clone size (percent repertoire), IFNγ+ sorted T cells after peptide stimulation (OX1149-290): 4.8 % of repertoire

B10: OX802 Peptides 321/322 clone 2 TCR (TCR, V domains shown)
V domain 1: KDQVFQPSTVASSEGAVVEIFCNHSVSNAYNFFWYLHFPGCAPRLLVKGSKPSQQGRYNMTYERFSSSLLILQVREADAAVYYCAVTGGYNKLIFGAGTRLAVHP
V domain 2: EAGVVQSPRYKIIEKKQPVAFWCNPISGHNTLYWYLQNLGQGPELLIRYENEEAVDDSQLPKDRFSAERLKGVDSTLKIQPAELGDSAVYLCASSLEAGDSYEQYFGPGTRLTVTE
Clone size (percent repertoire), IFNγ+ sorted T cells after peptide stimulation (OX802-321): 20 % of repertoire | Clone size (percent repertoire), IFNγ+ sorted T cells after peptide stimulation (OX802-322): 20 % of repertoire

B11: OX289 Peptide 52 clone 2 TCR (TCR, V domains shown)
V domain 1: EDKVVQSPLSLVVHEGDTVTLNCSYEVTNFRSLLWYKQEKKAPTFLFMLTSSGIEKKSGRLSSILDKKELSSILNITATQTGDSAIYLCAVGHFSSRSSGSARQLTFGSGTQLTVLP
V domain 2: DAGVIQSPRHEVTEMGQEVTLRCKPISGHNSLFWYRQTMMRGLELLIYFNNNVPIDDSGMPEDRFSAKMPNASFSTLKIQPSEPRDSAVYFCASSLKVGVDSSYNEQFFGPGTRLTVLE
Clone size (percent repertoire), IFNγ+ sorted T cells after peptide stimulation (OX289-052): 10.7 % of repertoire

B12: OX885 Peptides OX628-308/309 clone 1 TCR (TCR, V domains shown)
V domain 1: KTTQPPSMDCAEGRAANLPCNHSTISGNEYVYWYRQIHSQGPQYIIHGLKNNETNEMASLIITEDRKSSTLILPHATLRDTAVYYCIVRVAVTNAGKSTFGDGTTLTVKP
V domain 2: EAQVTQNPRYLITVTGKKLTVTCSQNMNHEYMSWYRQDPGLGLRQIYYSMNVEVTDKGDVPEGYKVSRKEKRNFPLILESPSPNQTSLYFCASRYYSADTQYFGPGTRLTVLE
Clone size (percent repertoire), IFNγ+ sorted T cells after peptide stimulation (OX628-308): 76.1 % of repertoire | Clone size (percent repertoire), IFNγ+ sorted T cells after peptide stimulation (OX628-309): 76.1 % of repertoire

B13: OX993 Peptides 413/414 clone 2 TCR (TCR)
TCR alpha: AQSVTQLGSHVSVSEGALVLLRCNYSSSVPPYLFWYVQYPNQGLQLLLKYTTGATLVKGINGFEAEFKKSETSFHLTKPSAHMSDAAEYFCAVSPPAQKLVFGTGTRLLVSPNIQNPDPAVYQLRD
TCR beta 1: NAGVTQTPKFQVLKTGQSMTLQCAQDMNHEYMSWYRQDPGMGLRLIHYSVGAGITDQGEVPNGYNVSRSTTEDFPLRLLSAAPSQTSVYFCASQETGVGGELFFGEGSRLTVLEDLKNVFPPEVAVFEPS
TCR beta 2: NAGVTQTPKFQVLKTGQSMTLQCAQDMNHEYMSWYRQDPGMGLRLIHYSVGAGITDQGEVPNGYNVSRSTTEDFPLRLLSAAPSQTSVYFCASSTTAVVSPLHFGNGTRLTVTEDLNKVFPPEVAVFEPS
Clone size (percent repertoire), IFNγ+ sorted T cells after peptide stimulation (OX993-413): 13.7 % of repertoire | Clone size (percent repertoire), IFNγ+ sorted T cells after peptide stimulation (OX993-414): 13.7 % of repertoire

B14: OX289 Peptide 221 clone 1 TCR (TCR, V domains shown)
V domain 1: SLAKTTQPISMDSYEGQEVNITCSHNNIATNDYITWYQQFPSQGPRFIIQGYKTKVTNEVASLFIPADRKSSTLSLPRVSLSDTAVYYCLVVPVYNQGGKLIFGQGTELSVKP
V domain 2: KAGVTQTPRYLIKTRGQQVTLSCSPISGHRSVSWYQQTPGQGLQFLFEYFSETQRNKGNFPGRFSGRQFSNSRSEMNVSTLELGDSALYLCASSSGTSGMGETQYFGPGTRLLVLE
Clone size (percent repertoire), IFNγ+ sorted T cells after peptide stimulation (OX289-221): 65.4 % of repertoire

B15: OX993 Peptides 413/414 clone 3 TCR (TCR, V domains shown)
V domain 1: RGEDVEQSLFLSVREGDSSVINCTYTDSSSTYLYWYKQEPGAGLQLLTYIFSNMDMKQDQRLTVLLNKKDKHLSLRIADTQTGDSAIYFCAEKKEGFKTIFGAGTRLFVKA
V domain 2: NAGVTQTPKFQVLKTGQSMTLQCAQDMNHEYMSWYRQDPGMGLRLIHYSVGAGITDQGEVPNGYNVSRSTTEDFPLRLLSAAPSQTSVYFCASQETGVGGELFFGEGSRLTVLE
Clone size (percent repertoire), IFNγ+ sorted T cells after peptide stimulation (OX993-413): 11.6 % of repertoire | Clone size (percent repertoire), IFNγ+ sorted T cells after peptide stimulation (OX993-414): 11.6 % of repertoire
